Results published in IntAct's records for PubMed 26297806.

B1: Progesterone-induced-blocking factor 1 (Homo sapiens), Q8WXW3 (parent)
chain: MSRKISKESKKVNISSSLESEDISLETTVPTDDISSSEEREGKVRITRQLIERKELLHNIQLLKIELSQKTMMIDNLKVDYLTKIEELEEKLNDALHQKQLLTLRLDNQLAFQQKDASKYQELMKQEMETILLRQKQLEETNLQLREKAGDVRRNLRDFELTEEQYIKLKAFPEDQLSIPEYVSVRFYELVNPLRKEICELQVKKNILAEELSTNKNQLKQLTETYEEDRKNYSEVQIRCQRLALELADTKQLIQQGDYRQENYDKVKSERDALEQEVIELRRKHEILEASHMIQTKERSELSKEVVTLEQTVTLLQKDKEYLNRQNMELSVRCAHEEDRLERLQAQLEESKKAREEMYEKYVASRDHYKTEYENKLHDELEQIRLKTNQEIDQLRNASREMYERENRNLREARDNAVAEKERAVMAEKDALEKHDQLLDRYRELQLSTESKVTEFLHQSKLKSFESERVQLLQEETARNLTQCQLECEKYQKKLEVLTKEFYSLQASSEKRITELQAQNSEHQARLDIYEKLEKELDEIIMQTAEIENEDEAERVLFSYGYGANVPTTAKRRLKQSVHLARRVLQLEKQNSLILKDLEHRKDQVTQLSQELDRANSLLNQTQQPYRYLIESVRQRDSKIDSLTESIAQLEKDVSNLNKEKSALLQTKNQMALDLEQLLNHREELAAMKQILVKMHSKHSENSLLLTKTEPKHVTENQKSKTLNVPKEHEDNIFTPKPTLFTKKEAPEWSKKQKMKT
partner: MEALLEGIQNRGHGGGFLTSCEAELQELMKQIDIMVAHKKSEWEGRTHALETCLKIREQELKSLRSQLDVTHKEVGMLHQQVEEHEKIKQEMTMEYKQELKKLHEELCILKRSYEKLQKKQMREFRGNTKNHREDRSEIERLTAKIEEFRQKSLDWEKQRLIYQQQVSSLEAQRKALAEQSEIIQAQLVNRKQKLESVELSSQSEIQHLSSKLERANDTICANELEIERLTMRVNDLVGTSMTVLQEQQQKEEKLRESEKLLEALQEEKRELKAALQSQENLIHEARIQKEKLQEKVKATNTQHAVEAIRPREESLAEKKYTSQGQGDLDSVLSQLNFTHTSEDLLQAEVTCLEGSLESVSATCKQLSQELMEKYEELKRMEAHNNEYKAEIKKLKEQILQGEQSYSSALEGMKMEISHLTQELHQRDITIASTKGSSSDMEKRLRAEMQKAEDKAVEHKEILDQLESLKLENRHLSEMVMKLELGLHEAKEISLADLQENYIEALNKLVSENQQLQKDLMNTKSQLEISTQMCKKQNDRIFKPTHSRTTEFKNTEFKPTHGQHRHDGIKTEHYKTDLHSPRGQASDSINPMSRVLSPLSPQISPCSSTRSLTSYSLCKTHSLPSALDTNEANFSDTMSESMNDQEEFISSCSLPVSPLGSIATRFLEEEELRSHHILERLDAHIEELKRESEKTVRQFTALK

Variants of: B1
Conditions: with cep63_human CEP63, Q96MT8

Variant	effect of a mutation on the interaction
E89Q	disrupting interaction strength
